Results published in patent US20160304571.

B1: AMSH (protein)
chain: MSDHGDVSLPPEDRVRALSQLGSAVEVNEDIPPRRYFRSGVEIIRMASIYSEEGNIEHAFILYNKYITLFIEKLPKHRDYKSAVIPEKKDTVKKLKEIAFPKAEELKAELLKRYTKEYTEYNEEKKKEAEELARNMAIQQELEKEKQRVAQQKQQQLEQEQFHAFEEMIRNQELEKERLKIVQEFGKVDPGLGGPLVPDLEKPSLDVFPTLTVSSIQPSDCHTTVRPAKPPVVDRSLKPGALSNSESIPTIDGLRHVVVPGRLCPQFLQLASANTARGVETCGILCGKLMRNEFTITHVLIPKQSAGSDYCNTENEEELFLIQDQQGLITLGWIHTHPTQTAFLSSVDLHTHCSYQMMLPESVAIVCSPKFQETGFFKLTDHGLEEISSCRQKGFHPHSKDPPLFCSCSHVTVVDRAVTITDLR
B2: CYLD (protein)
chain: GLEIMIGKKKGIQGHYNSCYLDSTLFCLFAFSSVLDTVLLRPKEKNDVEYYSETQELLRTEIVNPLRIYGYVCATKIMKLRKILEKVEAASGFTSEEKDPEEFLNILFHHILRVEPLLKIRSAGQKVQDCYFYQIFMEKNEKVGVPTIQQLLEWSFINSNLKFAEAPSCLIIQMPRFGKDFKLFKKIFPSLELNITDLLEDTPRQCRICGGLAMYECRECYDDPDISAGKIKQFCKTCNTQVHLHPKRLNHKYNPVSLPKDLPDWDWRHGCIPCQNMELFAVLCIETSHYVAFVKYGKDDSAWLFFDSMADRDGGQNGFNIPQVTPCPEVGEYLKMSLEDLHSLDSRRIQGCARRLLCDAYMCMYQSPTMSLYK
B3: TRABID (protein)
chain: LEVDFKKLKQIKNRMKKTDWLFLNACVGVVEGDLAAIEAYKSSGGDIARQLTADEVRLLNRPSAFDVGYTLVHLAIRFQRQDMLAILLTEVSQQAAKCIPAMVCPELTEQIRREIAASLHQRKGDFACYFLTDLVTFTLPADIEDLPPTVQEKLFDEVLDRDVQKELEEESPIINWSLELATRLDSRLYALWNRTAGDCLLDSVLQATWGIYDKDSVLRKALHDSLHDCSHWFYTRWKDWESWYSQSFGLHFSLREEQWQEDWAFILSLASQPGASLEQTHIFVLAHILRRPIIVYGVKYYKSFRGETLGYTRFQGVYLPLLWEQSFCWKSPIALGYTRGHFSALVAMENDGYGNRGAGANLNTDDDVTITFLPLVDSERKLLHVHFLSAQELGNEEQQEKLLREWLDCCVTEGGVLVAMQKSSRRRNHPLVTQMVEKWLDRYRQIRPCTSLS
B4: USP21 (protein)
chain: SDDKMAHHTLLLGSGHVGLRNLGNTCFLNAVLQCLSSTRPLRDFCLRRDFRQEVPGGGRAQELTEAFADVIGALWHPDSCEAVNPTRFRAVFQKYVPSFSGYSQQDAQEFLKLLMERLHLEINRRGRRAPPILANGPVPSPPRRGGALLEEPELSDDDRANLMWKRYLEREDSKIVDLFVGQLKSCLKCQACGYRSTTFEVFCDLSLPIPKKGFAGGKVSLRDCFNLFTKEEELESENAPVCDRCRQKTRSTKKLTVQRFPRILVLHLNRFSASRGSIKKSSVGVDFPLQRLSLGDFASDKAGSPVYQLYALCNHSGSVHYGHYTALCRCQTGWHVYNDSRVSPVSENQVASSEGYVLFYQLMQEPPRCL
B5: ubiquitin C-terminal hydrolase-L3 (UCH-L3) (protein)
chain: MEGQRWLPLEANPEVTNQFLKQLGLHPNWQFVDVYGMDPELLSMVPRPVCAVLLLFPITEKYEVFRTEEEEKIKSQGQDVTSSVYFMKQTISNACGTIGLIHAIANNKDKMHFESGSTLKKFLEESVSMSPEERARYLENYDAIRVTHETSAHEGQTEAPSIDEKVDLHFIALVHVDGHLYELDGRKPFPINHGETSDETLLEDAIEVCKKFMERDPDELRFNAIALSAA
B6: Cezanne (protein)
chain: PPSFSEGSGGSRTPEKGFSDREPTRPPRPILQRQDDIVQEKRLSRGISHASSSIVSLARSHVSSNGGGGGSNEHPLEMPICAFQLPDLTVYNEDFRSFIERDLIEQSMLVALEQAGRLNWWVSVDPTSQRLLPLATTGDGNCLLHAASLGMWGFHDRDLMLRKALYALMEKGVEKEALKRRWRWQQTQQNKESGLVYTEDEWQKEWNELIKLASSEPRMHLGTNGANCGGVESSEEPVYESLEEFHVFVLAHVLRRPIVVVADTMLRDSGGEAFAPIPFGGIYLPLEVPASQCHRSPLVLAYDQAHFSALVSMEQKENTKEQAVIPLTDSEYKLLPLHFAVDPGKGWEWGKDDSDNVRLASVILSLEVKLHLLHSYMNVKWIPLSSDAQAPLAQ
B7: BAP1 (protein)
chain: MNKGWLELESDPGLFTLLVEDFGVKGVQVEEIYDLQSKCQGPVYGFIFLFKWIEERRSRRKVSTLVDDTSVIDDDIVNNMFFAHQLIPNSCATHALLSVLLNCSSVDLGPTLSRMKDFTKGFSPESKGYAIGNAPELAKAHNSHARPEPRHLPEKQNGLSAVRTMEAFHFVSYVPITGRLFELDGLKVYPIDHGPWGEDEEWTDKARRVIMERIGLATAGEPYHDIRFNLMAVVPDRRIKYEARLHVLKVNRQTVLEALQQLIRVTQPELIQTHKSQESQLPEESKSASNKSPLVLEANRAPAASEGNHTDGAEEAAGSCAQAPSHSPPNKPKLVVKPPGSSLNGVHPNPTPIVQRLPAFLDNHNYAKSPMQEEEDLAAGVGRSRVPVRPPQQYSDDEDDYEDDEEDDVQNTNSALRYKGKGTGKPGALSGSADGQLSVLQPNTINVLAEKLKESQKDLSIPLSIKTSSGAGSPAVAVPTHSQPSPTPSNESTDTASEIGSAFNSPLRSPIRSANPTRPSSPVTSHISKVLFGEDDSLLRVDCIRYNRAVRDLGPVISTGLLHLAEDGVLSPLALTEGGKGSSPSIRPIQGSQGSSSPVEKEVVEATDSREKTGMVRPGEPLSGEKYSPKELLALLKCVEAEIANYEACLKEEVEKRKKFKIDDQRRTHNYDEFICTFISMLAQEGMLANLVEQNISVRRRQGVSIGRLHKQRKPDRRKRSRPYKAKRQ
B8: USP5 (protein)
chain: MAELSEEALLSVLPTIRVPKAGDRVHKDECAFSFDTPESEGGLYICMNTFLGFGKQYVERHFNKTGQRVYLHLRRTRRPKEEDPATGTGDPPRKKPTRLAIGVEGGFDLSEEKFELDEDVKIVILPDYLEIARDGLGGLPDIVRDRVTSAVEALLSADSASRKQEVQAWDGEVRQVSKHAFSLKQLDNPARIPPCGWKCSKCDMRENLWLNLTDGSILCGRRYFDGSGGNNHAVEHYRETGYPLAVKLGTITPDGADVYSYDEDDMVLDPSLAEHLSHFGIDMLKMQKTDKTMTELEIDMNQRIGEWELIQESGVPLKPLFGPGYTGIRNLGNSCYLNSVVQVLFSIPDFQRKYVDKLEKIFQNAPTDPTQDFSTQVAKLGHGLLSGEYSKPVPESGDGERVPEQKEVQDGIAPRMFKALIGKGHPEFSTNRQQDAQEFFLHLINMVERNCRSSENPNEVFRFLVEEKIKCLATEKVKYTQRVDYIMQLPVPMDAALNKEELLEYEEKKRQAEEEKMALPELVRAQVPFSSCLEAYGAPEQVDDFWSTALQAKSVAVKTTRFASFPDYLVIQIKKFTFGLDWVPKKLDVSIEMPEELDISQLRGTGLQPGEEELPDIAPPLVTPDEPKGSLGFYGNEDEDSFCSPHFSSPTSPMLDESVIIQLVEMGFPMDACRKAVYYTGNSGAEAAMNWVMSHMDDPDFANPLILPGSSGPGSTSAAADPPPEDCVTTIVSMGFSRDQALKALRATNNSLERAVDWIFSHIDDLDAEAAMDISEGRSAADSISESVPVGPKVRDGPGKYQLFAFISHMGTSTMCGHYVCHIKKEGRWVIYNDQKVCASEKPPKDLGYIYFYQRVAS
B9: A20 (protein)
chain: MAEQVLPQALYLSNMRKAVKIRERTPEDIFKPTNGIIHHFKTMHRYTLEMFRTCQFCPQFREIIHKALIDRNIQATLESQKKLNWCREVRKLVALKTNGDGNCLMHATSQYMWGVQDTDLVLRKALFSTLKETDTRNFKFRWQLESLKSQEFVETGLCYDTRNWNDEWDNLIKMASTDTPMARSGLQYNSLEEIHIFVLCNILRRPIIVISDKMLRSLESGSNFAPLKVGGIYLPLHWPAQECYRYPIVLGYDSHHFVPLVTLKDSGPEIRAVPLVNRDRGRFEDLKVHFLTDPENEMKEKLLKEYLMVIEIPVQGWDHGTTHLINAAKLDEANLPKEINLVDDYFELVQHEYKKWQENSEQGRRE

What was measured:
[1] = molecular target: Lys29-linked diubiquitin, P0CG48
Lys29-linked diubiquitin, P0CG48, sequence (P0CG48 whole entry, looked up): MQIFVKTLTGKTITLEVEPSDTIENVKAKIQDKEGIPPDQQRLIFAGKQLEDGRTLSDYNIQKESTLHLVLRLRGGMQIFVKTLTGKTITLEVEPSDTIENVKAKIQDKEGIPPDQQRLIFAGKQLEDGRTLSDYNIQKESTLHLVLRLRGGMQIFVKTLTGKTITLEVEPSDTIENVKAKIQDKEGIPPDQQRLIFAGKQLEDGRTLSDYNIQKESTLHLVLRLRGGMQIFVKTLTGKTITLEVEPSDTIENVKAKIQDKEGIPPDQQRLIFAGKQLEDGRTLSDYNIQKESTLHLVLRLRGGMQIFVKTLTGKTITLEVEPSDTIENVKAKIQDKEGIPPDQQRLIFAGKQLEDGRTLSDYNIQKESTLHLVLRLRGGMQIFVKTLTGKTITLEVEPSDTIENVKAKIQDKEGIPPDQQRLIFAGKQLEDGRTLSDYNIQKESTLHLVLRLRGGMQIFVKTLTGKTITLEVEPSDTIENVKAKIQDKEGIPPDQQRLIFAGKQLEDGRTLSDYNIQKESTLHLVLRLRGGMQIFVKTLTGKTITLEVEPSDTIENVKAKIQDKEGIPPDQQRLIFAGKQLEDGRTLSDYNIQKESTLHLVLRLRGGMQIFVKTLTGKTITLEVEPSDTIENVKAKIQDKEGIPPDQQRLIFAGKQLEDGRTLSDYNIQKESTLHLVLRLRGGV

[2] = molecular target: Lys63-linked diubiquitin (enzymatically assembled), P0CG48
Lys63-linked diubiquitin (enzymatically assembled), P0CG48, sequence (P0CG48 whole entry, looked up): as above

[3] = molecular target: Lys6-linked diubiquitin, P0CG48
Lys6-linked diubiquitin, P0CG48, sequence (P0CG48 whole entry, looked up): as above

Protein | cleavage in in vitro deubiquitinase assay (SDS-PAGE, silver stain) [1] | cleavage in in vitro deubiquitinase assay (SDS-PAGE, silver stain) [2] | cleavage in in vitro deubiquitinase assay (SDS-PAGE, silver stain) [3] | fold better substrate than Lys63-linked diubiquitin [1] | specificity constant (kcat/Km), quantitative western blot [1] | specificity constant (kcat/Km), fluorescence anisotropy [2] | specificity constant (kcat/Km), quantitative western blot [2]
B1 | inactive against Lys6- and Lys29-linked diubiquitin | cleaves Lys63-linked diubiquitin under identical reaction conditions with high activity | inactive against Lys6- and Lys29-linked diubiquitin | – | – | – | –
B2 | shows little or no activity against the Lys6 and Lys29 linkage | efficiently cleaves its preferred Lys63 linkage | shows little or no activity against the Lys6 and Lys29 linkage | – | – | – | –
B3 | cleaves Lys29 linkages more rapidly than Lys63 linkages | cleaves Lys29 linkages more rapidly than Lys63 linkages | did not cleave Lys6-linked diubiquitin | 40-fold better substrate | 1.0 (±0.2)×10^5 M^-1 s^-1 | 1.7 (±2.0)×10^3 M^-1 s^-1 | 2.5 (±0.4)×10^3 M^-1 s^-1
B4 | rapidly cleaves all chain types tested | rapidly cleaves all chain types tested | rapidly cleaves all chain types tested | – | – | – | –
B5 | failed to cleave | – | failed to cleave | – | – | – | –
B6 | also did not cleave Lys29 linkages | – | did not cleave Lys6-linked diubiquitin | – | – | – | –
B7 | failed to cleave | – | failed to cleave | – | – | – | –
B8 | rapidly cleaves all chains types tested | rapidly cleaves all chains types tested | rapidly cleaves all chains types tested | – | – | – | –
B9 | also did not cleave Lys29 linkages | – | did not cleave Lys6-linked diubiquitin | – | – | – | –
